Each block holds one binder with its values, some of them ahead of it.
Columns and labels:
[1] = molecular target: T1, GFP-MBSLZM (full-length GFP-MBS with the C-terminal domain of GST-MBSLZmutant) (human, UniProt O14974 1-1030); assay: GST pull-down from lysate of transfected COS1 cells, anti-MBS immunoblot
T1 construct: also called GFP-MBSLZ mutant; not shown: GFP of the pEGFP vector
T1 sequence (looked up): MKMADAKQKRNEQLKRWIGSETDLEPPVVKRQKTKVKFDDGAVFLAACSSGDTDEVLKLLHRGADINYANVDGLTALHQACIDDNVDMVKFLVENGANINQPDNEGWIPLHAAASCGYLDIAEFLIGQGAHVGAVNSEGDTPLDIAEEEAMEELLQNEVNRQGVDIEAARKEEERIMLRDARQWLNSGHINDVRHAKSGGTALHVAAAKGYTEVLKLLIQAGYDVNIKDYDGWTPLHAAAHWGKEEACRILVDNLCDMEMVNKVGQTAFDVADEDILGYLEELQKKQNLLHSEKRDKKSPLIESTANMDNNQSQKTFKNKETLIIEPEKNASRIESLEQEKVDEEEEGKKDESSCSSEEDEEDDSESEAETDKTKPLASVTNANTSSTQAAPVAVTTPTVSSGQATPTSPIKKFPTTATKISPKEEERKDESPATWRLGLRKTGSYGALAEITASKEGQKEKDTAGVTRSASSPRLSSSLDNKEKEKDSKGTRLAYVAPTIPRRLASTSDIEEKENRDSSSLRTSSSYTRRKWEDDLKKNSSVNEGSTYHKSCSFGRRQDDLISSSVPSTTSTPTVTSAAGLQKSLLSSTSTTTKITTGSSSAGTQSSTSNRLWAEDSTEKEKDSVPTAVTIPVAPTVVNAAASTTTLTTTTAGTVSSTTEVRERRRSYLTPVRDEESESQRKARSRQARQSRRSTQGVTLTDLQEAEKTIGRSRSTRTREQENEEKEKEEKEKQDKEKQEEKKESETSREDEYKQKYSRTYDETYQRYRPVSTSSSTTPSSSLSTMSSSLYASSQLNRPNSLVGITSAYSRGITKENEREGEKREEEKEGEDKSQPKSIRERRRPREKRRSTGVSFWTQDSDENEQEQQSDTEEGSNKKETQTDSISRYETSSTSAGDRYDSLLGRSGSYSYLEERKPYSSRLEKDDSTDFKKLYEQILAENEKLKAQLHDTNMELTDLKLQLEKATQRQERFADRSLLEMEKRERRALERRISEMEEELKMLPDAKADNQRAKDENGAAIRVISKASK

[2] = molecular target: T2, Myosin binding subunit (MBS) of myosin phosphatase, endogenous in human vascular smooth muscle cells (human, UniProt O14974 1-1030, limits assumed); assay: GST pull-down from vascular smooth muscle cell lysate, anti-MBS immunoblot
T2 construct: In lysate it stands in the myosin phosphatase complex with PP1 and the 20 kD subunit; also called MYPT1
T2 sequence (looked up): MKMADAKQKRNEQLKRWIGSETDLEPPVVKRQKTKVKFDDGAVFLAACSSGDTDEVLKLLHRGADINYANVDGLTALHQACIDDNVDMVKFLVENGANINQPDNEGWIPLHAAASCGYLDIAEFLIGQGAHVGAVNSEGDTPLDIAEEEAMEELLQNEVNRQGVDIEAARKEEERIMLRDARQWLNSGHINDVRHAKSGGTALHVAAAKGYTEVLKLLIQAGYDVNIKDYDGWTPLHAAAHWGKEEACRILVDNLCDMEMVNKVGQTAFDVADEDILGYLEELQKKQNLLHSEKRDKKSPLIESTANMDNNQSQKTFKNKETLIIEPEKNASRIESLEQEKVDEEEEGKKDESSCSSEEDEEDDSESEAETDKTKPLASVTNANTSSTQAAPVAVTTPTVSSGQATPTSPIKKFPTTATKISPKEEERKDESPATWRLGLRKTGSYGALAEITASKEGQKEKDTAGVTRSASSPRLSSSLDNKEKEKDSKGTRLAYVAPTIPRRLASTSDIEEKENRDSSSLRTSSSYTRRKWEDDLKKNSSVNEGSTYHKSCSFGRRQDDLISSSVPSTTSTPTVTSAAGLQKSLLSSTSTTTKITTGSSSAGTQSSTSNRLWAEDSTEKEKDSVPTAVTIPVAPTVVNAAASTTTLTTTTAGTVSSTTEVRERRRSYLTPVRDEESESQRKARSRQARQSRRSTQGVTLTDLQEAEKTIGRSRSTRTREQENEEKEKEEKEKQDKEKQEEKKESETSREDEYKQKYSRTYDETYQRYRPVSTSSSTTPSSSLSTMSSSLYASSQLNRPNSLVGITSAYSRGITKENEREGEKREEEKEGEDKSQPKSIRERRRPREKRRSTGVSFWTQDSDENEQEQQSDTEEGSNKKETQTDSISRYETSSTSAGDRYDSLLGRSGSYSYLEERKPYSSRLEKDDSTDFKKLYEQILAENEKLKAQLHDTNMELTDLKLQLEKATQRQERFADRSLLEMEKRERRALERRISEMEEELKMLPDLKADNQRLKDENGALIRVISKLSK
Text: Also shown is the same M-RIP domains expressed in COS1 cells as Flag-tagged proteins and immunoprecipitated with M2 antibody. The MBS immunoblot of the immunopellets is shown in the middle panel and the total cellular MBS content from each lysate used for immunoprecipitation is shown in the lower panel. Molecular weight size markers in kD are shown on the right.
Identical results were obtained in heterologous expression studies with epitope-tagged constructs for various M-RIP domains expressed in COS1 cells (FIG. 4B).
(§1) For fusion protein interactions with proteins from cell lysates, confluent cells were rinsed twice with ice cold PBS, lysed in buffer A, incubated for 1 hour at room temperature, then centrifuged at 14,000 rpm for 20 minutes at 40C. The supernatant was mixed with GST-fusion proteins prebound to glutathione agarose beads. After overnight incubation at 40C, the beads were washed with buffer C, eluted with SDS sample buffer and bound proteins were analyzed by immunoblotting. For fusion protein interactions with purified proteins, fusion proteins immobilized on beads were incubated in buffer A for one hour with purified soluble protein previously eluted from beads. After incubation, the beads were washed three times with buffer C, bound proteins were eluted in SDS sample buffer and analyzed by immunoblotting with anti-GST antibodies.

[3] = molecular target: T3, GST-MBSLZ (amino acids 847-1030 of MBS, includes the leucine zipper domain) (human, UniProt O14974 847-1030); assay: purified protein interaction, His fusions on Ni-NTA beads, anti-GST immunoblot
T3 construct: range 847-1030; also called wild type C terminal MBS; not shown: glutathione S-transferase (GST) tag
T3 sequence (looked up): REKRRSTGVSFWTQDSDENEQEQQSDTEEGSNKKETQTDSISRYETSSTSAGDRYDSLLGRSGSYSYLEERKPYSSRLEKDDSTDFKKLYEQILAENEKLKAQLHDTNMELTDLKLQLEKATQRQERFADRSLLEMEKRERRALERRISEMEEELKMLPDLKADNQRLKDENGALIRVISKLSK
Procedure: FIG. 4F show a series of immunoblots representing a purified protein interaction assay in which similar quantities of 6×his CC1, CC2, and CC3 bound to Ni-NTA beads were incubated with purified soluble GST-MBSLZ or GST-MBSLZ mutant. Bound GST-MBSLZ and GST-MBSLZ mutant were detected using anti-GST antibodies.
as §1

[4] = molecular target: T4, MBS-Cterm-pGBT9 (human MBS base pairs 2043-3090 fused to the Gal4 DNA binding domain) (human, UniProt P04386 1-147; O14974 682-1030); assay: yeast two-hybrid
T4 construct: Bait of the yeast 2-hybrid screen
Text: Human MBS-Cterm, base pairs 2043-3090 (kind gift of Dr. Masaaki Ito) was cloned into the EcoR1 site of yeast 2-hybrid vectors pGBT9 and pGAD424, expressing MBS fusion proteins with Gal4 DNA binding domain and DNA activating domain, respectively. Expression of MBS-Cterm in yeast was confirmed by dimerization when MBS-Cterm-pGBT9 and MBS-Cterm-pGAD424 were coexpressed in yeast (data not shown). Yeast strain Y190 was sequentially transformed with MBSCterm- pGBT9 and a human aorta cDNA library (Clontech) using the lithium acetate method. Interactions were identified by growth on selective media, and confirmed by colony lift filter β-galactosidase assay. The cDNA library plasmid was extracted from confirmed positive yeast colonies, and sequenced at the Tufts Core Sequencing Facility.

binding result [1]: no binding
B1: GST-M-RIP545-878 (RhoA-binding domain plus the remaining carboxy-terminus of CC2) (other)
chain: AEFRPIQQALAQERVGGVGPADTHEPLRPEAESGELERERARRREERRKRFGMLDATDGPGTEDAALRMEVDRSPGLPMSDLKTHNVHVEIEQRWHQVETTPLREEKQVPIAPVHLSSEDGGDRLSTHELTSLLEKELEQSQKEASDLLEQNRLLQDQLRVALGREQSAREGYVLQATCERGFAAMEETHQKKIEDLQRQHQRELEKLREEKDRLLAEETAATISAIEAMKNAHREEMERELEKSQRSQISSVNSDVEALRRQYLEELQSVQRELEVLSEQYSQKCLENAHLAQALEAERQALRQCQRENQELNAHNQELNNRLAAEITRLRTL
notes: not shown: glutathione S-transferase (GST) tag of the pGEX vector

binding result [2]: no binding
B2: GST-M-RIP545-823 (M-RIP RhoA-binding domain) (other)
chain: AEFRPIQQALAQERVGGVGPADTHEPLRPEAESGELERERARRREERRKRFGMLDATDGPGTEDAALRMEVDRSPGLPMSDLKTHNVHVEIEQRWHQVETTPLREEKQVPIAPVHLSSEDGGDRLSTHELTSLLEKELEQSQKEASDLLEQNRLLQDQLRVALGREQSAREGYVLQATCERGFAAMEETHQKKIEDLQRQHQRELEKLREEKDRLLAEETAATISAIEAMKNAHREEMERELEKSQRSQISSVNSDVEALRRQYLEELQSVQRELEVLS
notes: as for B1

binding result [3]: binds
B3: 6×his CC2 (polyhistidine fusion of M-RIP coiled-coil domain 2) (other)
chain: AAMEETHQKKIEDLQRQHQRELEKLREEKDRLLAEETAATISAIEAMKNAHREEMERELEKSQRSQISSVNSDVEALRRQYLEELQSVQRELEVLSEQYSQKCLENAHLAQALEAERQALRQCQRENQELNAHNQELNNRLAAEITRLRTL
notes: not shown: polyhistidine (6xhis) tag of the pQE vector

binding result [4]: binds
B4: MBS-Cterm-pGAD424 (human MBS base pairs 2043-3090 fused to the Gal4 DNA activating domain) (other, UniProt O14974 682-1030, looked up, not shown: large carriers)
chain: RKARSRQARQSRRSTQGVTLTDLQEAEKTIGRSRSTRTREQENEEKEKEEKEKQDKEKQEEKKESETSREDEYKQKYSRTYDETYQRYRPVSTSSSTTPSSSLSTMSSSLYASSQLNRPNSLVGITSAYSRGITKENEREGEKREEEKEGEDKSQPKSIRERRRPREKRRSTGVSFWTQDSDENEQEQQSDTEEGSNKKETQTDSISRYETSSTSAGDRYDSLLGRSGSYSYLEERKPYSSRLEKDDSTDFKKLYEQILAENEKLKAQLHDTNMELTDLKLQLEKATQRQERFADRSLLEMEKRERRALERRISEMEEELKMLPDLKADNQRLKDENGALIRVISKLSK
notes: domain: MBS-Cterm (base pairs 2043-3090)
